The supplement of paper PMC7125110
± gives the standard error. Fewer inactive variants are shown than the library holds.

B1: glmS ribozyme (parent)
chain: AUAAAAGCGCCAGAACUACAGAAAUGUAGUUGACGAGGAGGAGGUUUAUCGAAUUUUCGGCGGAUGCCUCCAAA

What was measured:
Details in all cases: with glucosamine-6-phosphate
glucosamine-6-phosphate [1] = variants of: B1; assay: self-cleavage kobs at 640 uM GlcN6P; higher = faster cleavage; RNA array
Summary of the method: (§1)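 Tracking of barcoded ribozyme variants used a hybridised Cy3 probe at 37 °C, after in situ transcription by E. coli RNA polymerase on sequenced MiSeq chips. The flowed solution held 40 μM to 10 mM glucosamine-6-phosphate in HEPES/KCl/Mg(OAc)2 buffer, and imaging ran over ~14 h. kobs was taken from exponential decay fits of normalised per-tile medians, and kcat and KM from weighted Michaelis–Menten fits.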

glucosamine-6-phosphate [2] = variants of: B1; assay: self-cleavage kobs at 2500 uM GlcN6P; higher = faster cleavage; RNA array
Summary of the method: as §1

glucosamine-6-phosphate [3] = variants of: B1; assay: self-cleavage kobs at 10000 uM GlcN6P; higher = faster cleavage; RNA array
Summary of the method: as §1

| Variant | self-cleavage kobs at 640 uM GlcN6P (glucosamine-6-phosphate [1]) | self-cleavage kobs at 2500 uM GlcN6P (glucosamine-6-phosphate [2]) | self-cleavage kobs at 10000 uM GlcN6P (glucosamine-6-phosphate [3]) |
| --- | --- | --- | --- |
| G32A G35U G38C A39C U49G | < 1e-05 s⁻¹ | < 1e-05 s⁻¹ | – |
| C34U A52G U54G | < 1e-05 s⁻¹ | < 1e-05 s⁻¹ | – |
| C16U U46C C50U | < 1e-05 s⁻¹ | – | – |
| G29A U69A | 7.98e-05 ± 2.2e-05 s⁻¹ | 3.9e-05 ± 9.8e-06 s⁻¹ | – |
| C34G U54A A64G | < 1e-05 s⁻¹ | < 1e-05 s⁻¹ | – |
| G32U A39G C71U | 0.000114 ± 3.4e-05 s⁻¹ | 0.00038 ± 0.0001 s⁻¹ | – |
| U30G G37C G41A A48U A53U C68G C70U | < 1e-05 s⁻¹ | – | – |
| U31A G60U C71A | < 1e-05 s⁻¹ | < 1e-05 s⁻¹ | – |
| C34G A36G C71U | < 1e-05 s⁻¹ | – | – |
| A33U U49A G51C | < 1e-05 s⁻¹ | – | – |
| G35C A36C G40A G62C A64G C70U | < 1e-05 s⁻¹ | < 1e-05 s⁻¹ | – |
| C34U G37A A39G | < 1e-05 s⁻¹ | < 1e-05 s⁻¹ | – |
| A33U G41U A48C C68U | < 1e-05 s⁻¹ | – | – |
| A36C G37A G43U C61G C67A | < 1e-05 s⁻¹ | < 1e-05 s⁻¹ | – |
| G29U A33C G41A U49C G60A U65C | < 1e-05 s⁻¹ | – | – |
| G29C U56C | 0.000147 ± 3.2e-05 s⁻¹ | 0.000116 ± 2.1e-05 s⁻¹ | 0.00068 ± 0.00019 s⁻¹ |
| G35U C58U A64U C68A | < 1e-05 s⁻¹ | – | – |
| C34A C67A C71U | < 1e-05 s⁻¹ | – | – |
| A36C G37A A64C G66A | < 1e-05 s⁻¹ | – | – |
| C34A G40C C61U | < 1e-05 s⁻¹ | – | – |
| G35U C67A U69C | < 1e-05 s⁻¹ | – | – |
| G35U G44U C68A | < 1e-05 s⁻¹ | < 1e-05 s⁻¹ | – |
| G35A G41U U46A | < 1e-05 s⁻¹ | < 1e-05 s⁻¹ | – |

| Variant | self-cleavage kobs at 640 uM GlcN6P (glucosamine-6-phosphate [1]) | self-cleavage kobs at 2500 uM GlcN6P (glucosamine-6-phosphate [2]) | self-cleavage kobs at 10000 uM GlcN6P (glucosamine-6-phosphate [3]) |
| --- | --- | --- | --- |
| G35U A42G U55A | < 1e-05 s⁻¹ | – | – |
| U31A A42U G59U | < 1e-05 s⁻¹ | – | – |
| A33U G41U G60C | < 1e-05 s⁻¹ | – | – |
| U30A G38C A39U | < 1e-05 s⁻¹ | – | – |
| C34A G35A A42G | < 1e-05 s⁻¹ | < 1e-05 s⁻¹ | – |
| G29U U55G G59U C70G | 0.00019 ± 4.5e-05 s⁻¹ | – | – |
| C34A C61U U65C U69G | < 1e-05 s⁻¹ | – | – |
| A36C G38C G43U U54G U56C | < 1e-05 s⁻¹ | – | – |
| A33C G43U G63U | < 1e-05 s⁻¹ | < 1e-05 s⁻¹ | < 1e-05 s⁻¹ |
| A33C A42U | < 1e-05 s⁻¹ | < 1e-05 s⁻¹ | – |
| U30C C34A | < 1e-05 s⁻¹ | – | < 1e-05 s⁻¹ |
| C34A G44U C50A | < 1e-05 s⁻¹ | – | – |
| C34G G40U U46A | < 1e-05 s⁻¹ | – | – |
| G26U A42U | 6.28e-05 ± 1.6e-05 s⁻¹ | 0.000124 ± 2.5e-05 s⁻¹ | – |
| G32C G35U A36C C68A | < 1e-05 s⁻¹ | < 1e-05 s⁻¹ | – |
| C34U C70A | 0.00139 ± 0.00062 s⁻¹ | – | – |
| A33G G41C G63U | < 1e-05 s⁻¹ | – | < 1e-05 s⁻¹ |
| G29C G40A U65G | < 1e-05 s⁻¹ | – | – |
| U31C G44A U46G G59A C70U | < 1e-05 s⁻¹ | < 1e-05 s⁻¹ | – |
| C19A G44U | 2.94e-05 ± 1.3e-05 s⁻¹ | 0.000114 ± 2.7e-05 s⁻¹ | – |
| U31G C58G A64U | < 1e-05 s⁻¹ | – | – |
| U30A G40U U45A | 4.42e-05 ± 2.1e-05 s⁻¹ | 0.000226 ± 5.7e-05 s⁻¹ | – |
| U30C G32U A64G | 7.24e-05 ± 2.3e-05 s⁻¹ | 0.000195 ± 5.7e-05 s⁻¹ | – |

| Variant | self-cleavage kobs at 640 uM GlcN6P (glucosamine-6-phosphate [1]) | self-cleavage kobs at 2500 uM GlcN6P (glucosamine-6-phosphate [2]) | self-cleavage kobs at 10000 uM GlcN6P (glucosamine-6-phosphate [3]) |
| --- | --- | --- | --- |
| G26U A42G U55C | 0.0103 ± 0.0029 s⁻¹ | – | – |
| G32U G38U | < 1e-05 s⁻¹ | < 1e-05 s⁻¹ | – |
| G35C U54G | < 1e-05 s⁻¹ | < 1e-05 s⁻¹ | – |
| G29U C34U G40U A42C U55A G66U | < 1e-05 s⁻¹ | < 1e-05 s⁻¹ | – |
| G35U G38U C67A | < 1e-05 s⁻¹ | – | – |
| G29C U54G C70G | 7.66e-05 ± 3.1e-05 s⁻¹ | – | – |
| G29U U69A C71G | 8.16e-05 ± 3.4e-05 s⁻¹ | – | – |
| U30C G44U | < 1e-05 s⁻¹ | < 1e-05 s⁻¹ | < 1e-05 s⁻¹ |
| A33C G35C A42G G51U C70G | < 1e-05 s⁻¹ | < 1e-05 s⁻¹ | – |
| G29U A48U A53U G63A | < 1e-05 s⁻¹ | < 1e-05 s⁻¹ | – |
| A36C A42U G44C A52U | < 1e-05 s⁻¹ | – | – |
| U31C G32A U55A | 0.000149 ± 2.6e-05 s⁻¹ | 0.000644 ± 0.00017 s⁻¹ | – |
| G35U A42U G63C | < 1e-05 s⁻¹ | – | – |
| U31G G51U | < 1e-05 s⁻¹ | – | – |
| U31A U55G C67U | 0.000859 ± 0.00023 s⁻¹ | 0.000519 ± 0.00025 s⁻¹ | – |
| A33C A36U G37U C71U | < 1e-05 s⁻¹ | < 1e-05 s⁻¹ | – |
| C34A A53U C70U | < 1e-05 s⁻¹ | – | – |
| G32C A33U C68U C71G | < 1e-05 s⁻¹ | < 1e-05 s⁻¹ | – |
| C34G U46G U65A | < 1e-05 s⁻¹ | < 1e-05 s⁻¹ | – |
| G29U G37U G51C C68U C71G | 4.89e-05 ± 1.7e-05 s⁻¹ | – | – |
| C34U A39C C50G | < 1e-05 s⁻¹ | – | – |
| U30C G51A U65G | < 1e-05 s⁻¹ | < 1e-05 s⁻¹ | – |
